Publication PMC7293005 (Nucleic Acids Research, 2020)

Target: T1, 6xHis-tagged full-length Prp5p (S. cerevisiae, UniProt P21372 1-849)
T1 sequence: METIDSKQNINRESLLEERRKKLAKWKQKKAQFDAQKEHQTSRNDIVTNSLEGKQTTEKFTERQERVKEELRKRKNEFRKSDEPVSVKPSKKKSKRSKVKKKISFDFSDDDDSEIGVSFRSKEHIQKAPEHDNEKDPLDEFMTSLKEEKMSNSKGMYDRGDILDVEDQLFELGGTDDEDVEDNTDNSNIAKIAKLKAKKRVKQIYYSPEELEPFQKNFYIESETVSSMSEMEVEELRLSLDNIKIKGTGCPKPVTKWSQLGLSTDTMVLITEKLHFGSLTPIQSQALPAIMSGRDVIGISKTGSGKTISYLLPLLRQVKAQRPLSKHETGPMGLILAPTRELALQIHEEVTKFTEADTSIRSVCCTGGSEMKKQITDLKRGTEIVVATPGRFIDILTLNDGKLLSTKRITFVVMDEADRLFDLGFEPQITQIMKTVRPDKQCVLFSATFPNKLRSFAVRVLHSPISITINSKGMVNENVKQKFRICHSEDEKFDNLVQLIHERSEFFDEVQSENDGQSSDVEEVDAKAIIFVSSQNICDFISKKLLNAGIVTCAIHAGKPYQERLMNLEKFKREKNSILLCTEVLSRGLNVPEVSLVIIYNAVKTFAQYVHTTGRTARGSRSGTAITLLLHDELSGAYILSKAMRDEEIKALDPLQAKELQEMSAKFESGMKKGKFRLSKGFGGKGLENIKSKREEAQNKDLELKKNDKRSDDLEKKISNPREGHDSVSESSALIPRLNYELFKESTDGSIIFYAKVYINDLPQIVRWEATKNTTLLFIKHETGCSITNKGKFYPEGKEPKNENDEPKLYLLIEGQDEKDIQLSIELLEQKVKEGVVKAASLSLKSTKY
Experiment: pull-down

binding result: binds
B1: GST-tagged Spt8p (natural protein, S. cerevisiae, UniProt P38915 1-602, looked up)
chain: MDEVDDILINNQVVDDEEDDEEMLSGLENDSKQDLEGNDDGGEDEEDDDDDDEDDDDDEDEREDDDEQEDDDGEDDAARMDKTATPTNEHQHDEQKAAAAGAGGAGDSGDAVTKIGSEDVKLSDVDGGVGSREASSSTHEASANGEVYEYYKHMLNAAQIADSYNIYPTAAIPIQTHVNALAVSRGLKYLFLGGSDGYIRKYDLLNTLEGKLSLTILQKHSLAESIQNAGILQSYWENEIPQKKSEMKLSANKTDYEPKVSPVHSLEVQSECLFILSGLQNGGITMQGVRYMEGSIAHYFKGRNGHTQIVNILRLNGQEDRFLSGSWDKRLLEWDLQTGDIVNEFKKSRSELSSLEMRPLYSSVDVSGNVNSGKENENADDDMDSLFGDEDEDEKQDAGNEPVETGDGSNGEENKEQISEESLNIVYDESVFMTSGLNGSVHIWDRRMTQSPALSLERGAGVPPWCLSACWGVDGDHVYAGRRNACVEQFDLKMPSKPIHNLKLPSISGPVSCVKAMPNNKHLLCASRDNIRLYNVEIAVDASNSTTKSSKVPFLIVPGHHGGIISNLYLDPTSRFIISTSGNRGWQGNSTDTTLIYDIDLE
